Biological target: CaV1.2 IQ domain TripleA mutant (CaV1.2 F1618A, F1619A, Y1622A) (human)
Assay: ITC

B1: CaBP1 C-terminal lobe (domain or fragment)
chain: IGVKELRDAFREFDTNGDGEISTSELREAMRKLLGHQVGHRDIEEIIRDVDLNGDGRVDFEEFVRMMSR
Kd: 221 nM | dH: -1.45 ± 0.14 kcal/mol | stoichiometry N: 0.93 ± 0.01
